In PMC7158967, “Comparative evaluation of ^68Ga-labelled TATEs: the impact of chelators on imaging” (EJNMMI Research, 2020):
Like-named read-outs stand apart in the source and are kept apart here.

Columns and labels:
healthy volunteers = test: clinical; conditions: human, in vivo
Method: (§1) Twenty-two healthy volunteers gave informed consent and agreed to participate in the study. […] Each patient was injected with an average activity of 1.9 MBq/kg. The timing of image acquisition ranged from 30 to 45 min after injection (3 min/bed position). The PET image was attenuated and then reconstructed using the iterative reconstruction algorithm implemented.

clinical = conditions: human, in vivo, total radioactivity
Method: as §1

[1] = Micro-PET/CT imaging of AR42J tumour-bearing nude mice; conditions: both sexes, mouse, in vivo, iv, 2.96 MBq, total radioactivity, nude mice bearing AR42J tumours, read-out: SUVmax, 3D micro-PET/CT
Method: (§2) Tumour cells were subcutaneously injected into the left forelimb of each nude mouse. Biodistribution and imaging studies were conducted when the tumour volume reached at least 1.0 × 1.0 × 1.0 cm^3.
Six (3 female and 3 male) mice with AR42J tumour xenografts (15–20 g) were used in the imaging study. All tumour-bearing mice were anaesthetized by intranasal inhalation of isoflurane. […] Images were acquired and reconstructed using micro-PET/CT at 30 min and 2 h after intravenous injection.

[2] = assay type: in vitro ADME; conditions: human
Method: In vitro serum binding studies for both ^68Ga-labelled NOTA-TATE and DOTA-TATE were carried out by following a generalized procedure summarized below. One millilitre of fresh anticoagulated (heparinized) human plasma was prepared. Freshly labelled compound (3.7 MBq, 0.1 mCi) was added to three centrifuge tubes, each containing 0.1 mL of human plasma. After incubation at 37 °C for 2 h, 1 mL of ice-cold methanol was added to each tube. The mixtures were separated by centrifugation (5 min, 3000 rpm) to collect the supernatant, which was repeated three times. A gamma counter was then used to measure the radioactivity of the supernatant (A) and the precipitate (B) in counts per minute (CPM); the plasma-protein binding rate was calculated as PPB = B/(A + B)100%, and the average of three tubes was recorded.

KM mice = conditions: mouse, in vivo
Method: Thirty KM mice were randomly divided into a control group, a ^68Ga- NOTA-TATE low-dose group (100 μCi) and a high-dose group (1 mCi). Each group contained 10 mice, half female and half male. The dose of the appropriate compound was administered through the tail vein at an administration volume of 0.2 mL. The animal blood routine, body weight and animal feed consumption were performed before administration and on days 4, 7, 14, 21 and 28 after administration. At the end of the observation period, the surviving mice were dissected, and histopathological examination was performed on the myocardium, liver, spleen, lung, kidney, stomach, intestine, gonad, bone, muscle and brain of each mouse.

[3] = Biodistribution in AR42J tumour-bearing nude mice; conditions: mouse, in vivo; for tissue to tissue ratio at 0.25 h / tissue to tissue ratio at 0.5 h / tissue to tissue ratio at 1 h / tissue to tissue ratio at 2 h: both sexes, nude, iv, 0.1 mCi, total radioactivity
Method: as §2

## C[C@@H](O)[C@@H]1NC(=O)[C@H](CCCCN)NC(=O)[C@@H](Cc2c[nH]c3ccccc23)NC(=O)[C@H](Cc2ccccc2)NC(=O)[C@@H](NC(=O)[C@@H](Cc2ccccc2)NC(=O)CN2CCN(CC(=O)O)CCN(CC(=O)O)CC2)CSSC[C@@H](C(=O)N[C@H](CO)[C@@H](C)O)NC1=O [^68Ga-NOTA-TATE, metal not drawn]
Healthy volunteers
  SUVmax Adrenals, range: 5.7~15.6
  SUVmax Blood pool, range: 0.9~1.6
  SUVmax Bone marrow, range: 0.7~1.1
  SUVmax Breast, range: 0.5~1.1
  SUVmax Kidneys, range: 6.2~20.3
  SUVmax Large bowel, range: 1.0~2.4
  SUVmax Liver, range: 1.3~6.3
  SUVmax Lungs, range: 0.3~0.9
  SUVmax Lymph nodes, range: 0.8~1.4
  SUVmax Palatine tonsil, range: 0.6~1.8
  SUVmax Pancreas, range: 2.0~5.5
  SUVmax Parotid gland, range: 0.7~1.3
  SUVmax Pituitary gland, range: 0.7~2.3
  SUVmax Small bowel, range: 1.4~2.5
  SUVmax Spleen, range: 10.7~17.1
  SUVmax Stomach, range: 1.6~4.9
  SUVmax Submandibular, range: 0.7~1.4
  SUVmax Thymus, range: 0.6~1.4
  SUVmax Thyroid, range: 1.2~2.5
  radioactivity in the gallbladder: not seen
  side effects after administration: no apparent side effects
  uptake in the brain: No apparent
clinical; both sexes, 1.9 MBq/kg, SUVmax Adrenals, average
  SUV: 10.7 SUV
clinical; both sexes, 1.9 MBq/kg, SUVmax Blood pool, average
  SUV: 1.4 SUV
clinical; both sexes, 1.9 MBq/kg, SUVmax Bone marrow, average
  SUV: 0.9 SUV
clinical; both sexes, 1.9 MBq/kg, SUVmax Kidneys, average
  SUV: 14.1 SUV
clinical; both sexes, 1.9 MBq/kg, SUVmax Large bowel, average
  SUV: 1.5 SUV
clinical; both sexes, 1.9 MBq/kg, SUVmax Liver, average
  SUV: 4.2 SUV
clinical; both sexes, 1.9 MBq/kg, SUVmax Lungs, average
  SUV: 0.6 SUV
clinical; both sexes, 1.9 MBq/kg, SUVmax Lymph nodes, average
  SUV: 1.2 SUV
clinical; both sexes, 1.9 MBq/kg, SUVmax Palatine tonsil, average
  SUV: 1.3 SUV
clinical; both sexes, 1.9 MBq/kg, SUVmax Pancreas, average
  SUV: 3.7 SUV
clinical; both sexes, 1.9 MBq/kg, SUVmax Parotid gland, average
  SUV: 0.9 SUV
clinical; both sexes, 1.9 MBq/kg, SUVmax Pituitary gland, average
  SUV: 1.5 SUV
clinical; both sexes, 1.9 MBq/kg, SUVmax Small bowel, average
  SUV: 1.8 SUV
clinical; both sexes, 1.9 MBq/kg, SUVmax Spleen, average
  SUV: 14.6 SUV
clinical; both sexes, 1.9 MBq/kg, SUVmax Stomach, average
  SUV: 2.4 SUV
clinical; both sexes, 1.9 MBq/kg, SUVmax Submandibular, average
  SUV: 1.2 SUV
clinical; both sexes, 1.9 MBq/kg, SUVmax Thymus, average
  SUV: 1.1 SUV
clinical; both sexes, 1.9 MBq/kg, SUVmax Thyroid, average
  SUV: 1.7 SUV
clinical; both sexes, iv, 1.9 MBq/kg, SUVmax Breast, average
  SUV: 0.7 SUV
clinical; iv, 1.86 mCi, SUVmax kidney, single volunteer
  SUV: 12.5 SUV
clinical; iv, 1.86 mCi, SUVmax liver, single volunteer
  SUV: 1.4 SUV
clinical; iv, 1.86 mCi, SUVmax pituitary, single volunteer
  SUV: 1.9 SUV
clinical; iv, 1.86 mCi, SUVmax spleen, single volunteer
  SUV: 6.8 SUV
clinical; iv, 3.83 mCi, SUVmax kidney, single volunteer
  SUV: 6.2 SUV
clinical; iv, 3.83 mCi, SUVmax liver, single volunteer
  SUV: 1.3 SUV
clinical; iv, 3.83 mCi, SUVmax pituitary, single volunteer
  SUV: 0.7 SUV
clinical; iv, 3.83 mCi, SUVmax spleen, single volunteer
  SUV: 3.9 SUV
[1]; 30 min after i.v. injection
  SUV at 0.5 h: 3.02 SUV
[1]; 120 min after i.v. injection
  SUV at 2 h: 1.64 SUV
[2]
  fraction unbound at 2 h: 0.879
KM mice
  acute animal toxicity, overall finding: no apparent toxicity
  histopathological examination: no toxic pathological changes
[3]
  tissue to tissue ratio at 0.25 h: 12.5
  tissue to tissue ratio at 0.5 h: 8.45
  tissue to tissue ratio at 1 h: 39.5
  tissue to tissue ratio at 2 h: 44.3
[3]; 15 min postinjection, read-out: Tumour/kidney ratio
  tissue to tissue ratio at 0.25 h: 0.18
[3]; 0.5 h postinjection, read-out: Tumour/kidney ratio
  tissue to tissue ratio at 0.5 h: 0.94
[3]; 1 h postinjection, read-out: Tumour/kidney ratio
  tissue to tissue ratio at 1 h: 0.81
[3]; 2 h postinjection, read-out: Tumour/kidney ratio
  tissue to tissue ratio at 2 h: 0.79
[3]; %ID/g Blood
  tissue uptake at 0.25 h: 3.25 ± 1.06 %ID/g
  tissue uptake at 0.5 h: 1.01 ± 0.42 %ID/g
  tissue uptake at 1 h: 0.58 ± 0.24 %ID/g
  tissue uptake at 2 h: 0.07 ± 0.06 %ID/g
[3]; %ID/g Gallbladder
  tissue uptake at 0.25 h: 3.62 ± 1.94 %ID/g
  tissue uptake at 0.5 h: 6.21 ± 2.69 %ID/g
  tissue uptake at 1 h: 1.83 ± 0.84 %ID/g
  tissue uptake at 2 h: 1.61 ± 0.67 %ID/g
[3]; %ID/g Intestines
  tissue uptake at 0.25 h: 0.07 ± 0.04 %ID/g
  tissue uptake at 0.5 h: 0.03 ± 0.02 %ID/g
  tissue uptake at 1 h: 0.21 ± 0.09 %ID/g
  tissue uptake at 2 h: 0.13 ± 0.07 %ID/g
[3]; %ID/g Kidney
  tissue uptake at 0.25 h: 17.1 ± 6.39 %ID/g
  tissue uptake at 0.5 h: 4.23 ± 2.73 %ID/g
  tissue uptake at 1 h: 3.79 ± 2.16 %ID/g
  tissue uptake at 2 h: 1.69 ± 1.02 %ID/g
[3]; %ID/g Liver
  tissue uptake at 0.25 h: 1.19 ± 0.54 %ID/g
  tissue uptake at 0.5 h: 0.43 ± 0.23 %ID/g
  tissue uptake at 1 h: 0.07 ± 0.04 %ID/g
  tissue uptake at 2 h: 0.04 ± 0.02 %ID/g
[3]; %ID/g Lungs
  tissue uptake at 0.25 h: 3.64 ± 1.56 %ID/g
  tissue uptake at 0.5 h: 0.21 ± 0.17 %ID/g
  tissue uptake at 1 h: 0.64 ± 0.41 %ID/g
  tissue uptake at 2 h: 0.48 ± 0.21 %ID/g
[3]; %ID/g Muscle
  tissue uptake at 0.25 h: 0.26 ± 0.03 %ID/g
  tissue uptake at 0.5 h: 0.47 ± 0.26 %ID/g
  tissue uptake at 1 h: 0.08 ± 0.06 %ID/g
  tissue uptake at 2 h: 0.03 ± 0.01 %ID/g
[3]; %ID/g Skeleton
  tissue uptake at 0.25 h: 2.14 ± 1.41 %ID/g
  tissue uptake at 0.5 h: 1.46 ± 0.37 %ID/g
  tissue uptake at 1 h: 0.85 ± 0.38 %ID/g
  tissue uptake at 2 h: 0.13 ± 0.07 %ID/g
[3]; %ID/g Spleen
  tissue uptake at 0.25 h: 0.19 ± 0.08 %ID/g
  tissue uptake at 0.5 h: 0.13 ± 0.11 %ID/g
  tissue uptake at 1 h: 0.12 ± 0.06 %ID/g
  tissue uptake at 2 h: 0.03 ± 0.01 %ID/g
[3]; %ID/g Stomach
  tissue uptake at 0.25 h: 0.19 ± 0.13 %ID/g
  tissue uptake at 0.5 h: 3.55 ± 1.83 %ID/g
  tissue uptake at 1 h: 1.61 ± 1.03 %ID/g
  tissue uptake at 2 h: 1.11 ± 0.21 %ID/g
[3]; %ID/g Tumour
  tissue uptake at 0.25 h: 3.24 ± 1.03 %ID/g
  tissue uptake at 0.5 h: 3.97 ± 2.24 %ID/g
  tissue uptake at 1 h: 3.16 ± 1.92 %ID/g
  tissue uptake at 2 h: 1.33 ± 0.96 %ID/g
